What was measured:
Assay in all cases: cell-based or functional assay
[1] = target: HIV-1 strain T250-4 envelope (gp120) (HIV-1)
[2] = target: HIV-1 strain 211-9 envelope (gp120) (HIV-1)
[3] = target: HIV-1 strain CNE21 envelope (gp120) (HIV-1)
[4] = target: HIV-1 Env of strain 231966.c02 (HIV-1)
[5] = target: HIV-1 Env of strain 6545.v4.cl (HIV-1)
[6] = target: HIV-1 strain 3103.v3.c10 envelope (gp120) (HIV-1)
[7] = target: HIV-1 strain ZM247v1(Rev-) envelope (gp120) (HIV-1)
[8] = target: HIV-1 strain Du172.17 envelope (gp120) (HIV-1)
[9] = target: HIV-1 strain Du156.12 envelope (gp120) (HIV-1)
[10] = target: HIV-1 Env of strain ZM233M.PB6 (HIV-1)
[11] = target: HIV-1 strain CNE58 envelope (gp120) (HIV-1)
[12] = target: HIV-1 Env of strain Ce0682_E4 (HIV-1)
[13] = target: HIV-1 Env of strain TROJO4551.58 (HIV-1)
[14] = target: HIV-1 strain 1054_07_TC4_1499 envelope (gp120) (HIV-1)
[15] = target: HIV-1 Env of strain 703357.C02 (HIV-1)
[16] = target: HIV-1 Env of strain X2131_C1_B5 (HIV-1)
[17] = target: HIV-1 strain R2184.04 envelope (gp120) (HIV-1)
[18] = target: HIV-1 strain SC422661.8 envelope (gp120) (HIV-1)
[19] = target: HIV-1 strain 620345.c01 envelope (gp120) (HIV-1)
[20] = target: HIV-1 Env of strain 1006_11_C3_1601 (HIV-1)
[21] = target: HIV-1 Env of strain PVO.4 (HIV-1)
[22] = target: HIV-1 strain 62357_14_D3_4589 envelope (gp120) (HIV-1)
[23] = target: HIV-1 Env of strain SC422661.8 (HIV-1)
[24] = target: HIV-1 strain 6545.v4.c1 envelope (gp120) (HIV-1)
[25] = target: HIV-1 strain 928-28 envelope (gp120) (HIV-1)
[26] = target: HIV-1 Env of strain THRO4156.18 (HIV-1)
[27] = target: HIV-1 strain WITO4160.33 envelope (gp120) (HIV-1)
[28] = target: HIV-1 Env of strain QH0692.42 (HIV-1)
[29] = target: HIV-1 strain PVO.4 envelope (gp120) (HIV-1)
[30] = target: HIV-1 strain RHPA4259.7 envelope (gp120) (HIV-1)
[31] = target: HIV-1 Env of strain T250-4 (HIV-1)
[32] = target: HIV-1 strain T251-18 envelope (gp120) (HIV-1)
[33] = target: HIV-1 strain 6480.v4.c25 envelope (gp120) (HIV-1)
[34] = target: HIV-1 strain 1006_11_C3_1601 envelope (gp120) (HIV-1)
[35] = target: HIV-1 Env of strain C3347.c11 (HIV-1)
[36] = target: HIV-1 strain AC10.0.29 envelope (gp120) (HIV-1)
[37] = target: HIV-1 strain Ce2010_F5 envelope (gp120) (HIV-1)
[38] = target: HIV-1 strain ZM233M.PB6 envelope (gp120) (HIV-1)
[39] = target: HIV-1 strain REJO4541.67 envelope (gp120) (HIV-1)
[40] = target: HIV-1 Env of strain 3415.v1.c1 (HIV-1)
[41] = target: HIV-1 Env of strain WITO4160.33 (HIV-1)
[42] = target: HIV-1 strain 6811.v7.c18 envelope (gp120) (HIV-1)
[43] = target: HIV-1 Env of strain 3718.v3.c11 (HIV-1)
[44] = target: HIV-1 Env of strain RHPA4259.7 (HIV-1)
[45] = target: HIV-1 Env of strain CNE21 (HIV-1)
[46] = target: HIV-1 strain X1254_c3 envelope (gp120) (HIV-1)
[47] = target: HIV-1 Env of strain WEAU_d15_410_787 (HIV-1)
[48] = target: HIV-1 strain ZM109F.PB4 envelope (gp120) (HIV-1)
[49] = target: HIV-1 Env of strain Du156.12 (HIV-1)
[50] = target: HIV-1 strain CNE30 envelope (gp120) (HIV-1)

B1: NIH45-46^G54F IgG (antibody, name in Kabat numbering, V domains shown)
VH: QVRLSQSGGQMKKPGESMRLSCRASGYEFLNCPINWIRLAPGRRPEWMGWLKPRFGAVNYARKFQGRVTMTRDVYSDTAFLELRSLTSDDTAVYFCTRGKYCTARDYYNWDFEHWGRGAPVTVSS
VL: EIVLTQSPATLSLSPGETAIISCRTSQSGSLAWYQQRPGQAPRLVIYSGSTRAAGIPDRFSGSRWGADYNLSISNLESGDFGVYYCQQYEFFGQGTKVQVDI
neutralization IC80 [1]: > 50 µg/mL | neutralization IC80 [2]: > 50 µg/mL | neutralization IC80 [3]: 0.66 µg/mL | neutralization IC50 [4]: 0.06 µg/mL | neutralization IC50 [5]: > 50 µg/mL | neutralization IC80 [6]: 1.28 µg/mL | neutralization IC80 [7]: 2.45 µg/mL | neutralization IC80 [8]: > 50 µg/mL | neutralization IC80 [9]: 0.019 µg/mL | neutralization IC50 [10]: 0.22 µg/mL | neutralization IC80 [11]: 0.11 µg/mL | neutralization IC50 [12]: 0.011 µg/mL | neutralization IC50 [13]: 0.03 µg/mL | neutralization IC80 [14]: 0.283 µg/mL | neutralization IC50 [15]: 7.91 µg/mL | neutralization IC50 [16]: 0.1 µg/mL | neutralization IC80 [17]: 0.054 µg/mL | neutralization IC80 [18]: 0.1 µg/mL | neutralization IC80 [19]: > 50 µg/mL | neutralization IC50 [20]: 0.003 µg/mL | neutralization IC50 [21]: 0.07 µg/mL | neutralization IC80 [22]: 0.14 µg/mL | neutralization IC50 [23]: 0.04 µg/mL | neutralization IC80 [24]: > 50 µg/mL | neutralization IC80 [25]: 0.41 µg/mL | neutralization IC50 [26]: 0.89 µg/mL | neutralization IC80 [27]: 0.14 µg/mL | neutralization IC50 [28]: 0.56 µg/mL | neutralization IC80 [29]: 0.25 µg/mL | neutralization IC80 [30]: 0.02 µg/mL | neutralization IC50 [31]: > 50 µg/mL | neutralization IC80 [32]: 1.38 µg/mL | neutralization IC80 [33]: 0.046 µg/mL | neutralization IC80 [34]: 0.024 µg/mL | neutralization IC50 [35]: 0.015 µg/mL | neutralization IC80 [36]: 1.12 µg/mL | neutralization IC80 [37]: 0.186 µg/mL | neutralization IC80 [38]: 0.99 µg/mL | neutralization IC80 [39]: 0.028 µg/mL | neutralization IC50 [40]: < 0.001 µg/mL | neutralization IC50 [41]: 0.02 µg/mL | neutralization IC80 [42]: 0.063 µg/mL | neutralization IC50 [43]: 0.32 µg/mL | neutralization IC50 [44]: 0.005 µg/mL | neutralization IC50 [45]: 0.12 µg/mL | neutralization IC80 [46]: 0.043 µg/mL | neutralization IC50 [47]: < 0.001 µg/mL | neutralization IC80 [48]: 0.17 µg/mL | neutralization IC50 [49]: < 0.001 µg/mL | neutralization IC80 [50]: 0.348 µg/mL

— patent US20130209454A1
